Values of other authors in article PMC3978290.
“And” between values parts separate entries of the source, which are not always exact repeats. Equal values may be shown once.

Key:
[1] = target: C-reactive protein (Homo sapiens) (UniProt P02741); assay: SPR
C3b C3b (Homo sapiens) = C3b C3b (Homo sapiens) (UniProt P01024); assay: SPR
C3u C3u (Homo sapiens) = C3u C3u (Homo sapiens) (UniProt P01024); assay: sedimentation velocity
[2] = target: Complement factor H (Homo sapiens) (UniProt P08603); assay: sedimentation equilibrium

Complement factor H, sequence (P08603 19-1231): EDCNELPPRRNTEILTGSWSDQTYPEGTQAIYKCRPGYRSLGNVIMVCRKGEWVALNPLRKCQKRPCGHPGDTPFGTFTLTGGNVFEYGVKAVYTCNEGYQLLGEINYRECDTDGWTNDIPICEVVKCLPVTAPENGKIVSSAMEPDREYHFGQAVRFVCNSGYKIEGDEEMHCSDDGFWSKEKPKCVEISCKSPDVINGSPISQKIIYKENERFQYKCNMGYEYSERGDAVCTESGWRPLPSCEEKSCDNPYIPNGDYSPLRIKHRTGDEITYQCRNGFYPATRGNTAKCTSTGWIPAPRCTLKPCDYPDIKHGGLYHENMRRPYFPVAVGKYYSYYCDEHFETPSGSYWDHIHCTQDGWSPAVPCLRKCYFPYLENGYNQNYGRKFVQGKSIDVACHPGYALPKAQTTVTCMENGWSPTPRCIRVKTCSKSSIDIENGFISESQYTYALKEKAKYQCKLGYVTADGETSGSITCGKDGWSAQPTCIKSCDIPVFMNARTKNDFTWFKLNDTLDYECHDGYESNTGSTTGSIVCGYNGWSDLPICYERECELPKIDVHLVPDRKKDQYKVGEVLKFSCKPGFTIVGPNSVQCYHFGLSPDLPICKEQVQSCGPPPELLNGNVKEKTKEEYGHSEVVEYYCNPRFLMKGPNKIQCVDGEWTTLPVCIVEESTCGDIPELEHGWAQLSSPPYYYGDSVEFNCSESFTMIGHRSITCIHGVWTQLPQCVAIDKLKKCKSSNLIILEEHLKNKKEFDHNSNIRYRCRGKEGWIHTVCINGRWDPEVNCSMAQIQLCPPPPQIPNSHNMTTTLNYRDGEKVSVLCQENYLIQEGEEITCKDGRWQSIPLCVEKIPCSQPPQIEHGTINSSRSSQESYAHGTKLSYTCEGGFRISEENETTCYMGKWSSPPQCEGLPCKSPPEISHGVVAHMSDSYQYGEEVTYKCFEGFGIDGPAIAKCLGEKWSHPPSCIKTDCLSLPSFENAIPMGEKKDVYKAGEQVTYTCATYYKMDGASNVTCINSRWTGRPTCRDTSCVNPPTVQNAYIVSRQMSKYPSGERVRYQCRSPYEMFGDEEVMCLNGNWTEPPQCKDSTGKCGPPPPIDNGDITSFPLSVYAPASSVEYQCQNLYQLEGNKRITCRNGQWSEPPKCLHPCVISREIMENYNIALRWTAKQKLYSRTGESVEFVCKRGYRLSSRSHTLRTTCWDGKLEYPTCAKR
C3b C3b (Homo sapiens), sequence (P01024 566-670): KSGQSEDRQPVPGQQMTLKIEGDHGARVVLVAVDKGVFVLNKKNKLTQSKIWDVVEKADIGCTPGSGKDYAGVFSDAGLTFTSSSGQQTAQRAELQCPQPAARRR
Complement factor H SCR-19/20, sequence (P08603 1107-1231): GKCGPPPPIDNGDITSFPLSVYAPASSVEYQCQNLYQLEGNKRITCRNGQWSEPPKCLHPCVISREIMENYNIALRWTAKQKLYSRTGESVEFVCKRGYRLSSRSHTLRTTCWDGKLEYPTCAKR
Complement factor H SCR-1/4 SCR-1/4, sequence (P08603 19-264): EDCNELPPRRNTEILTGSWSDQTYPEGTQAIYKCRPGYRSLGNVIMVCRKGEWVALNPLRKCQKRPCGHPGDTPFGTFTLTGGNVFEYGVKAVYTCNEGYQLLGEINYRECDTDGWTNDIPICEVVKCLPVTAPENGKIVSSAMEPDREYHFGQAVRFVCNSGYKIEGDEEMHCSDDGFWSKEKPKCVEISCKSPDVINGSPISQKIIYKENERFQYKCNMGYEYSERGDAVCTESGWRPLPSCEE
C3u C3u (Homo sapiens), sequence (P01024 23-667, chain 1 of 2): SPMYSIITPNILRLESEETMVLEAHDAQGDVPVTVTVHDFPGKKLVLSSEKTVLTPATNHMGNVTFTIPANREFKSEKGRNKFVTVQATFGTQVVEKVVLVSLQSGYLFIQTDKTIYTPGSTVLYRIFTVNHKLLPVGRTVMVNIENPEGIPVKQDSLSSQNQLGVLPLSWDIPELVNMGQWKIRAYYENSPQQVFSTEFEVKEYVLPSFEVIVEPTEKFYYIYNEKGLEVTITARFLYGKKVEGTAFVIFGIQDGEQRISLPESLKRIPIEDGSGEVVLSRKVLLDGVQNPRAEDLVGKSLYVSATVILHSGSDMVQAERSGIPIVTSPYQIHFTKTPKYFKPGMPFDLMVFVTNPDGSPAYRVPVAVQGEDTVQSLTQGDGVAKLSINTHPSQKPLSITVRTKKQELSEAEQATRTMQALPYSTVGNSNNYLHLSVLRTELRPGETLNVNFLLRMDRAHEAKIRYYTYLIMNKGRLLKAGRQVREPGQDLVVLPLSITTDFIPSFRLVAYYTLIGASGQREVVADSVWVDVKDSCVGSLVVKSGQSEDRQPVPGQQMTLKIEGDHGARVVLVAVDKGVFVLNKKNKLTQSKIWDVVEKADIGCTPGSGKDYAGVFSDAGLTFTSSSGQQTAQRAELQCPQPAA
C3u C3u (Homo sapiens), sequence (P01024 672-1663, chain 2 of 2): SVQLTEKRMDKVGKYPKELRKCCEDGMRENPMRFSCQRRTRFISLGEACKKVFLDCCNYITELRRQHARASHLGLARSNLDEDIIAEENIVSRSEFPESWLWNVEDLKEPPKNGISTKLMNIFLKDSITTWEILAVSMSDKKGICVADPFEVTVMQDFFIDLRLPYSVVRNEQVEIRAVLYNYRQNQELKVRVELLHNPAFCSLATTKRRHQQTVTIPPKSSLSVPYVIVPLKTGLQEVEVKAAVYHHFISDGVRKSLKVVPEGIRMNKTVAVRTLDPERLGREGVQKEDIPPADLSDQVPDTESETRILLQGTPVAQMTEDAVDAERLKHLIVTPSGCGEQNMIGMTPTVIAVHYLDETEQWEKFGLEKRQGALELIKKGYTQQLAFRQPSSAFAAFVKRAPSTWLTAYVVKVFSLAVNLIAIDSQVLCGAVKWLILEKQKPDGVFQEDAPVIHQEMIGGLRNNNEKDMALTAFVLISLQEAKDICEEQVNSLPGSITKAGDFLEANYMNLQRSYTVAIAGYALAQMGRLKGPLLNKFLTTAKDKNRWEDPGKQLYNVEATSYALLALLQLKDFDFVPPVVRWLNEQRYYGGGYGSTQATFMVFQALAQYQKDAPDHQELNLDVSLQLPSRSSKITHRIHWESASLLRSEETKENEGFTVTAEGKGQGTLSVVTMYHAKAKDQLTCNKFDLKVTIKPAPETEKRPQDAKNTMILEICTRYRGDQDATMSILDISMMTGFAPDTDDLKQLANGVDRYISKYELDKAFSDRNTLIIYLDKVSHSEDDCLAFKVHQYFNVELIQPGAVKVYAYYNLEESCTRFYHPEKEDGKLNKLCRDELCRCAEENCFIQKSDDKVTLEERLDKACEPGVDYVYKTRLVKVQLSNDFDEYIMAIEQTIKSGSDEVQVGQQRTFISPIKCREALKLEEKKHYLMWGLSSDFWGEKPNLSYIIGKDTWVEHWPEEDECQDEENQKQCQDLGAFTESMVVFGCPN
C-reactive protein (Homo sapiens), sequence (P02741 19-223): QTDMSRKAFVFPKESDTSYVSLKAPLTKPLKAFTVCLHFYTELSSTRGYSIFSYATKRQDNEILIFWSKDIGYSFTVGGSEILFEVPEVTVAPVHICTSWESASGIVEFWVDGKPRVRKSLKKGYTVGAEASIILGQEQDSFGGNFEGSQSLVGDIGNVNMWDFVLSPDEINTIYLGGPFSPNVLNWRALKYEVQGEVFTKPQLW

Substance	Kd [1] [µM]	Kd (C3b C3b (Homo sapiens))	Kd (C3u C3u (Homo sapiens)) [µM]	Kd [2] [µM]
Complement factor H (from UniProt P08603)	4.2	1.1 µM	0.59	28
Complement factor H SCR-1/4 SCR-1/4 (from UniProt P08603)		11.7 µM and 11 µM		
Complement factor H SCR-19/20 (from UniProt P08603)		5.4 µM and 0.54 µM		
